Laboratory results as given in article PMC8126848 (Proceedings of the National Academy of Sciences of the …, 2021).

Target: soluble ectodomain of ICAM-1 (intercellular adhesion molecule-1), domains D1 to D5 (UniProt P05362 28-480)
Experiment: cryo-EM structure

Sequence of soluble ectodomain of ICAM-1 (intercellular adhesion molecule-1), domains D1 to D5 (P05362 28-480): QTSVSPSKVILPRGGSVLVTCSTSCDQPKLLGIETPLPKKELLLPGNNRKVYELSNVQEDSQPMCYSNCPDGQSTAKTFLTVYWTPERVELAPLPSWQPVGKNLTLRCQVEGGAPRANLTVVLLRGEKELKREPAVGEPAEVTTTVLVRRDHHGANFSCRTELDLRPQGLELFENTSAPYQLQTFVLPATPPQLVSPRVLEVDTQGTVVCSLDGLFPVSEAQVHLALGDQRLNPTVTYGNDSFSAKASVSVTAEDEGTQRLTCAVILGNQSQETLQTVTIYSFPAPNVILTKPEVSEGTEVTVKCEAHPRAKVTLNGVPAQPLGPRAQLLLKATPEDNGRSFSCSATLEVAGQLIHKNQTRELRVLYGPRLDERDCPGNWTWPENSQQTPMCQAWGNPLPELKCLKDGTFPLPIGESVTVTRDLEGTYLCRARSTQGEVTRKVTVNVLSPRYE

B1: rhinovirus 14 capsid protein VP2 (natural protein, rhinovirus 14 (strain 1059), UniProt P03303 70-331, looked up)
chain: SPNVEACGYSDRVQQITLGNSTITTQEAANAVVCYAEWPEYLPDVDASDVNKTSKPDTSVCRFYTLDSKTWTTGSKGWCWKLPDALKDMGVFGQNMFFHSLGRSGYTVHVQCNATKFHSGCLLVVVIPEHQLASHEGGNVSVKYTFTHPGERGIDLSSANEVGGPVKDVIYNMNGTLLGNLLIFPHQFINLRTNNTATIVIPYINSVPIDSMTRHNNVSLMVIPIAPLTVPTGATPSLPITVTIAPMCTEFSGIRSKSIVPQ
  binding result: binds
